This data set has as its system T1, Minos transposase (fly cDNA ILMi) (Drosophila hydei).
T1 sequence: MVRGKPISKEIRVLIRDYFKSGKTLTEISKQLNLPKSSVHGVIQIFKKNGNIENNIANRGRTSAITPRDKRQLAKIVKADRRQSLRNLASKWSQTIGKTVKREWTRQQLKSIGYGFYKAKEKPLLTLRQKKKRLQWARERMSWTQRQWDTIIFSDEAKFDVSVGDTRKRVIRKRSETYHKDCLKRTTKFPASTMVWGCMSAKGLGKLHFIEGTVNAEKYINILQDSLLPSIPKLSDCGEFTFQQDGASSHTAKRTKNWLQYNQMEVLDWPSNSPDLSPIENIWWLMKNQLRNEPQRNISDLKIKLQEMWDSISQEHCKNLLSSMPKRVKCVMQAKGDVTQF
Kind of data set: cell_activity. The settings on record: germ-line transposition frequency in mouse, 12 events in 146 transposon-positive progeny; TA target site duplication.

In turn, “Minos transposon MiCMVGFP (Minos inverted repeats flanking CMV-GFP)” had an activity of 8.2%.
